Test results taken from the DeepSol protein solubility set.

assay: soluble on expression in E. coli; label from the status in PepcDB or PDB records

Row | Sequence | soluble on expression in E. coli
1 | MSLIKIGVIADDFTGATDIASFLVENGLPTVQINGVPTGKMPEAIDALVISLKTRSCPVVEATQQSLAALSWLQQQGCKQIYFKYCSTFDSTAKGNIGPVTDALMDALDTPFTVFSPALPVNGRTVYQGYLFVMNQLLAESGMRHHPVNPMTDSYLPRLVEAQSTGRCGVVSAHVFEQGVDAVRQELARLQQEGYRYAVLDALTEHHLEIQGEALRDAPLVTGGSGLAIGLARQWAQENGNQARKAGRPLAGRGVVLSGSCSQMTNRQVAHYRQIAPAREVDVARCLSIETLAAYAHELAEWVLGQESVLAPLVFATASTDALAAIQQQYGAQKASQAVETLFSQLAARLAAEGVTRFIVAGGETSGVVTQSLGIKGFHIGPTISPACREGHHHHHH | not soluble
2 | MSYKEGDVLVTNGEQSPGYKIVEIKGLVVGITVRSRGLGKNIIASLRSLLGGEIKEYVELAEQARLQALQRMVDNAKALGANAVVNVRFDSNELSEAMDEIIAYGTAVVVEKSS | soluble
3 | MILSSYNTIQSVFCCCCCCSVQKRQMRTQISLSTDEELPEKYTQHRRPWLSQLSNKKQSNTGRVQPSKRKPLPPLPPSEVAEEKIQVKALYDFLPREPCNLALRRAEEYLILEKYNPHWWKARDRLGNEGLIPSNYVTENKITNLEIYEWYHRNITRNQAEHLLRQESKEGAFIVRDSRHLGSYTISVFMGARRSTEAAIKHYQIKKNDSGQWYVAERHAFQSIPELIWYHQHNAAGLMTRLRYPVGLMGSCLPATAGFSYGKVCTHAEVK | soluble
4 | NLKVKGARDVFEYMKGRIPDETKEHLFVLFLSTKNQILRHETITIGTLTASLIHPREIFKAAIRESAHSIILVHNHPSGDVQPSNADKQVTSILKKAGDLLQIELLDHVIVGNNDWFSFRDHALL | soluble
5 | MRMRHKPWWDDFLAENADIAISNPADYKGKWNTVFGNDNPIHIEVGTGKGQFISGMAKQNPDINYIGIELFKSVIVTAVQKVKDSEAQNVKLLNIDADTLTDVFEPGEVKRVYLNFSDPWPKKRHEKRRLTYSHFLKKYEEVMGKGGSIHFKTDNRGLFEYSLKSFSEYGLLLTYVSLDLHNSNLEGNIMTEYEEKFSALGQPIYRAEVEWRT | soluble
6 | MPQPAARVTDMHVCPMVTPGLPPVPHVGGPLLPPGSPSVFIGGLPAATLGTLALCSGPVDVVIMGSVKVLICGKPAARMGDICAHGGTIVSGYPQVLIG | not soluble
7 | MAWGGLCNPPLCFGFSGCDMNVREYYEHALAERGYQPDEAQLQAVERLQRYYDEWVRFKALRSNALKKLLNRPDVPRGVYLWGGVGRGKSFLMDAFYATVPVVRKTRLHFHEFMRGVHRELEEVKGTQDPLDEVARRLARRYRLICFDEFHVSDVADAMILYRLLLKLFEHGTSFVMTSNYEPSTLYPDGLHRDRILPAIALIQGRMDVLNVDAGIDYRRRSLEQVQCYHTPLDAQARQALEHAFAQLSDTAPQDPVLHIEHREIRAQALAGSVVWFDFATLCGGPRSQNDYLELANRFHAVILSDVPRMGPRQASEARRFTWLIDVFYDHKVKLIMSAEVEPEQLYTEGALANEFHRTVSRILEMQSREYLEAERRLAVTLAAALEHHHHHH | not soluble
8 | MSTVVDRLQRMTLNLTSPDGNLCATVDAERRARFHLRDETRFERYDAPTLSTQVKALLTTMNSGRELGIKRAYAADGREPAAVNGTHWDAAHRRFEAALATLELEGYSEDGLLLLQSGFDLSGYRVTIDRDDLPRTSPEQFLRELSGAYRDLLAHRRQRRAELLREHLGT | not soluble
9 | MKCAICDSVALSLHFGAPSCKACAAFFRRTVALDITYDCITGTLDCEVNFERRMACKRCRYQKCIDNNMQRYLVQSKKGRPDASTANGIENPTTSASPSIPSPFSPPCPSSHNSAPSGLLSPMETDEIQKLNEHFFKMDSNLNKSRRMAFTDSRLLDIFSGVCKMPFEKHQLQPFDFRSYRGYQKQEYVMLFNYANTLPGFQELSNASQNFLFRIACGVDYVISSSYYTLCIGTESNLLINQDGTYIQMMPLPLMGDEPGTELMFTRKEELEKYRNIIKPRVNSWLEFIPLFKSLELSFEENAILKALCCWQTAHFKLEECDKENVRKQKSLLVQCLLKFCIDTYGEEEGPARAGNIILFSSSISVSLMGTSRNVVYGLKLPYISKS | not soluble
10 | MKVGSQVIINTSHMKGMKGAEATVTGAYDTTAYVVSYTPTNGGQRVDHHKWVIQEEIKLEHHHHHH | not soluble
